The values that follow come from patent US20200317768A1 (published 2020).

For test [1], the target named is T1, human FcγRIIb constitutively expressed on MDCK cells (human, UniProt P31994 43-310).
T1 sequence (looked up): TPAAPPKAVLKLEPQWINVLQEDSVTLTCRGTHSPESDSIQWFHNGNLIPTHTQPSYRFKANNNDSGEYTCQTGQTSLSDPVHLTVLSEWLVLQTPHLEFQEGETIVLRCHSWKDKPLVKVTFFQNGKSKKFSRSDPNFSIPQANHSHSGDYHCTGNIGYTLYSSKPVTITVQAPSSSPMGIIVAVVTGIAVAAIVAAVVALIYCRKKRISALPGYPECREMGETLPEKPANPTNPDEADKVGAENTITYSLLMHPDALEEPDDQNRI
Description: cell-based or functional assay.

For test [2], the target named is T2, soluble mouse FcγRII, His-tagged (mouse, UniProt P08101 30-210, limits assumed).
T2 construct: Captured on the chip by an anti-His antibody
T2 sequence (looked up): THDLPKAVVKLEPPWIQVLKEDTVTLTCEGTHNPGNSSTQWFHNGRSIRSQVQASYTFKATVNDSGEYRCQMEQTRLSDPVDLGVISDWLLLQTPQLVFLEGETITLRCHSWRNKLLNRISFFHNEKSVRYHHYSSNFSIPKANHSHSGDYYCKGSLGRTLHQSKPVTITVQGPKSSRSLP
In words: SPR, mouse FcgRII-His captured, antigen-antibody complex injected, pH7.4, 25C. On the procedure:
Regarding the produced Fc region variant-containing antibodies, binding assays between soluble mouse FcγRII and antigen-antibody complexes were performed using BIACORE® T200 (GE Healthcare). Soluble mouse FcγRII was produced in the form of a His-tagged molecule by a method known to those skilled in the art. An appropriate amount of an anti-His antibody was fixed onto Sensor chip CM5 (GE Healthcare) by the amine coupling method using a His capture kit (GE Healthcare) to capture mouse FcγRII. Next, an antibody-antigen complex and a running buffer (as a reference solution) were injected, and interaction was allowed to take place with the mouse FcγRII captured onto the sensor chip. 20 mM N-(2-Acetamido)-2-aminoethanesulfonic acid, 150 mM NaCl, 1.2 mM CaCl₂, and 0.05% (w/v) TWEEN, 20 at pH7.4 was used as the running buffer, and the respective buffer was also used to dilute the soluble mouse FcγRII. To regenerate the sensor chip, 10 mM glycine-HCl at pH1.5 was used. All measurements were carried out at 25° C. […] To calculate the parameters, the BIACORE® T100 Evaluation Software (GE Healthcare) was used.
On the technique in general: In SPR one partner is held on a chip, and binding of the other changes the refractive index at the surface.

B1: M103205H795-P1375m/M103202L889-SK1 (antibody, human IgG1, kappa)
heavy: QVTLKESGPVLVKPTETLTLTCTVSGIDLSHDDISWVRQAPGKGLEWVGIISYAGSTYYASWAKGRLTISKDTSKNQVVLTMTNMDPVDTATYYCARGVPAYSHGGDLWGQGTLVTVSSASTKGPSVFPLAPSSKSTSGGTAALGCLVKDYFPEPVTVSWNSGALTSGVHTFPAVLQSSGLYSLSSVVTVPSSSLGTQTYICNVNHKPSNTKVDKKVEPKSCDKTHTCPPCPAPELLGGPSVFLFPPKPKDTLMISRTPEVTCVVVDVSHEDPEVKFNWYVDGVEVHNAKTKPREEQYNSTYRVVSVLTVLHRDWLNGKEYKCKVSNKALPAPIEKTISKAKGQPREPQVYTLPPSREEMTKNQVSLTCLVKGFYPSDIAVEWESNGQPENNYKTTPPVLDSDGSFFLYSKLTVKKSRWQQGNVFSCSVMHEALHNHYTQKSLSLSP
light: DIVMTQSPATLSLSPGERATLSCTSSQSVYHANWLSWFQQKPGQPPKLLIYWASTLAYGVPSRFSGSGSGTDFTLTISSLQPEDAATYYCAGGYGGGRYAFGQGTKVEIKRTVAAPSVFIFPPSDEQLKSGTASVVCLLNNFYPREAKVQWKVDNALQSGNSQESVTEQDSKDSTYSLSSTLTLSKADYEKHKVYACEVTHQGLSSPVTKSFNRGEC
notes: also called MS1032LO06-P1375m
Turning to B1, the celluar uptake in test [1] was 3.43 relative to SG1 (=1.00). For the same molecule, in test [2], the “biacore IC binding” value is 1.21 relative to SG1 (=1.00).

B2: M103205H795-P1378m/M103202L889-SK1 (antibody, human IgG1, kappa)
heavy: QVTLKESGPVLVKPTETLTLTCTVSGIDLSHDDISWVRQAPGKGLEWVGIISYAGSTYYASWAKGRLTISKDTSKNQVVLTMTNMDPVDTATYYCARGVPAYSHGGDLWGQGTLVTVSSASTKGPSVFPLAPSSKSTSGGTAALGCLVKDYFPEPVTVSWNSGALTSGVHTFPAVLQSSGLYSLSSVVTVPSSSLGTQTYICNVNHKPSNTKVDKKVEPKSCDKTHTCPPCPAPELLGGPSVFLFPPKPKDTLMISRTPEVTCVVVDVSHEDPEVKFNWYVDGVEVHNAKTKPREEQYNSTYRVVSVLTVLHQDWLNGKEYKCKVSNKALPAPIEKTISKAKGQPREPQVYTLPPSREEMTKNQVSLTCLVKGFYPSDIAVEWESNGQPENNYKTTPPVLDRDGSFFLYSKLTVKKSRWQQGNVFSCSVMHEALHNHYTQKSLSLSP
light: B1 light
notes: also called MS1032LO06-P1378m
For B2, the celluar uptake in test [1] is 3.86 relative to SG1 (=1.00). In test [2], the “biacore IC binding” value was 1.23 relative to SG1 (=1.00).

B3: M103205H795-P1487m/M103202L889-SK1 (antibody, human IgG1, kappa)
heavy: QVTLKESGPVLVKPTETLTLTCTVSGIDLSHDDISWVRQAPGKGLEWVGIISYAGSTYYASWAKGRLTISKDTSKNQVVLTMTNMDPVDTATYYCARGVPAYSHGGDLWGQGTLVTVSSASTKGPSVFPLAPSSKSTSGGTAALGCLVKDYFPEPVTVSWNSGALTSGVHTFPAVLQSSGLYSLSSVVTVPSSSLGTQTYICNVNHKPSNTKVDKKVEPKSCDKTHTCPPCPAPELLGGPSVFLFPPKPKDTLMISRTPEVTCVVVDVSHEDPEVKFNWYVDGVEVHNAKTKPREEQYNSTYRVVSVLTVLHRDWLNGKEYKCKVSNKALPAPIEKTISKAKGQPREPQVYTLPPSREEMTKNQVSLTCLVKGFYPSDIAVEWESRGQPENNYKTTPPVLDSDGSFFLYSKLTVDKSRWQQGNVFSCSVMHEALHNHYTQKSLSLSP
light: B1 light
Regarding B3, the celluar uptake in test [1] is 1.23 relative to SG1 (=1.00). For the same molecule, the “biacore IC binding” value in test [2] was 1.46 relative to SG1 (=1.00).

B4: M103205H795-P1489m/M103202L889-SK1 (antibody, human IgG1, kappa)
heavy: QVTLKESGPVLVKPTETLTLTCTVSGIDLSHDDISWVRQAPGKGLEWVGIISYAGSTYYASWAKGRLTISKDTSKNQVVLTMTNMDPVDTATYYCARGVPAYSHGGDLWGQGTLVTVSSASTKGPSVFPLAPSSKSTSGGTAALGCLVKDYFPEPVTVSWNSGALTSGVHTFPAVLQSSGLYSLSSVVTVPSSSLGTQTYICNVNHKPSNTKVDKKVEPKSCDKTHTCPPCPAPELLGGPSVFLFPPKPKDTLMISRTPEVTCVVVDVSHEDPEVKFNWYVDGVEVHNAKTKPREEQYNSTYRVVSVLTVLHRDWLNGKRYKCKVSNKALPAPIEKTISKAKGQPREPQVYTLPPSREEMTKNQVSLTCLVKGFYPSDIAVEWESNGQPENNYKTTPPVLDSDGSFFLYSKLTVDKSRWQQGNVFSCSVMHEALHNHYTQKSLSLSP
light: B1 light
Consider B4, for which the celluar uptake in test [1] is 1.68 relative to SG1 (=1.00). In addition, the “biacore IC binding” value in test [2] is 1.24 relative to SG1 (=1.00).

B5: M103205H795-P1493m/M103202L889-SK1 (antibody, human IgG1, kappa)
heavy: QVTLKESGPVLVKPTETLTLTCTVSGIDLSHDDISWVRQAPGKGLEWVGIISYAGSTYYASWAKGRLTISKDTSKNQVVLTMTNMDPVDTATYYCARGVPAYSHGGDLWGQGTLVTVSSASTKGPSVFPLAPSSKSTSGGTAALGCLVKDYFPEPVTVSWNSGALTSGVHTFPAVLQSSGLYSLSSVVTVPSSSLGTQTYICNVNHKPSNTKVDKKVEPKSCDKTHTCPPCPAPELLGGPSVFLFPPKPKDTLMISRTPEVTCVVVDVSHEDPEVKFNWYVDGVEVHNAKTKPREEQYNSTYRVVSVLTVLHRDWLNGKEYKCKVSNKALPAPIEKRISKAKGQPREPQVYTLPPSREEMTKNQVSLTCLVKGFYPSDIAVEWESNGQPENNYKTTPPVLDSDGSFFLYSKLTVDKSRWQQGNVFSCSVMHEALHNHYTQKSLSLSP
light: B1 light
Turning to B5, in test [1], the celluar uptake was 0.99 relative to SG1 (=1.00). For the same molecule, the “biacore IC binding” value in test [2] was 1.1 relative to SG1 (=1.00).

B6: M103205H795-P1492m/M103202L889-SK1 (antibody, human IgG1, kappa)
heavy: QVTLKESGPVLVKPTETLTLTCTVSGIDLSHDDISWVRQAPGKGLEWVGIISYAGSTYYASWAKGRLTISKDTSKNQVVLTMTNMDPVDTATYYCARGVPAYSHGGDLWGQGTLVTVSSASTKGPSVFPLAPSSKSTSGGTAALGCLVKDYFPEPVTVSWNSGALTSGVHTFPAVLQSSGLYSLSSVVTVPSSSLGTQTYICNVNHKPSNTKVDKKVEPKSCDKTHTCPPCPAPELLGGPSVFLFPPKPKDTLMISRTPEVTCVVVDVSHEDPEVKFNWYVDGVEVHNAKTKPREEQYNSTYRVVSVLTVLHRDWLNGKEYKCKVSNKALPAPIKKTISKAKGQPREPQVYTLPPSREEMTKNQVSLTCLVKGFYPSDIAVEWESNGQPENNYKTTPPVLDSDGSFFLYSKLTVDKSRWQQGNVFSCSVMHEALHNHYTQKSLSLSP
light: B1 light
In the case of B6, in test [1], the celluar uptake is 1.13 relative to SG1 (=1.00). Further, the “biacore IC binding” value in test [2] is 0.88 relative to SG1 (=1.00).

B7: M103205H795-P1494m/M103202L889-SK1 (antibody, human IgG1, kappa)
heavy: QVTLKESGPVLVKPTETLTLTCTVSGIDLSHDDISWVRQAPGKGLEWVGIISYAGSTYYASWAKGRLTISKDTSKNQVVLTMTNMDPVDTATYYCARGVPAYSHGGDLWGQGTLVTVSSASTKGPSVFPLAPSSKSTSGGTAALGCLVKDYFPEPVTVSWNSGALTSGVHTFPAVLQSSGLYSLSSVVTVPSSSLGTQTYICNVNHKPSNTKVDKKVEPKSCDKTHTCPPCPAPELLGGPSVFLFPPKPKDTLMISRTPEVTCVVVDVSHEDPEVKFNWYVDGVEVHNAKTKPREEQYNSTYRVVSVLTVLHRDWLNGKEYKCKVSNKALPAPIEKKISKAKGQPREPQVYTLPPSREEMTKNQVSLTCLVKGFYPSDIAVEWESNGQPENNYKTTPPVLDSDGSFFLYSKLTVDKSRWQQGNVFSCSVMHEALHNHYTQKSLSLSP
light: B1 light
For the molecule B7, in test [1], the celluar uptake is 1.12 relative to SG1 (=1.00). Besides, the “biacore IC binding” value in test [2] was 1.14 relative to SG1 (=1.00).

B8: M103205H795-P1486m/M103202L889-SK1 (antibody, human IgG1, kappa)
heavy: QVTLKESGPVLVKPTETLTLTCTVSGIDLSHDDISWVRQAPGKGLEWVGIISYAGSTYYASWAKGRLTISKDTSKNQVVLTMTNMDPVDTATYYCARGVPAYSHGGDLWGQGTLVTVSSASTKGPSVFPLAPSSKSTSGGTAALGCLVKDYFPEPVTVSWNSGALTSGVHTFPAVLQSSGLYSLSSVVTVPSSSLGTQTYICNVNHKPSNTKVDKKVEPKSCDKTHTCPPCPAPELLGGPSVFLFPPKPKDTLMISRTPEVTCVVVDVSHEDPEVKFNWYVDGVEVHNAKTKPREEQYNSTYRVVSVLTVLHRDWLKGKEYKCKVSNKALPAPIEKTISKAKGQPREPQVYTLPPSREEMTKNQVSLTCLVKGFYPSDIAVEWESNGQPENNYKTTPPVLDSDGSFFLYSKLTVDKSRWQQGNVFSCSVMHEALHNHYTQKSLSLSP
light: B1 light
Turning to B8, the celluar uptake in test [1] is 1.52 relative to SG1 (=1.00). Besides, in test [2], the “biacore IC binding” value is 1.2 relative to SG1 (=1.00).

B9: M103205H795-P1484m/M103202L889-SK1 (antibody, human IgG1, kappa)
heavy: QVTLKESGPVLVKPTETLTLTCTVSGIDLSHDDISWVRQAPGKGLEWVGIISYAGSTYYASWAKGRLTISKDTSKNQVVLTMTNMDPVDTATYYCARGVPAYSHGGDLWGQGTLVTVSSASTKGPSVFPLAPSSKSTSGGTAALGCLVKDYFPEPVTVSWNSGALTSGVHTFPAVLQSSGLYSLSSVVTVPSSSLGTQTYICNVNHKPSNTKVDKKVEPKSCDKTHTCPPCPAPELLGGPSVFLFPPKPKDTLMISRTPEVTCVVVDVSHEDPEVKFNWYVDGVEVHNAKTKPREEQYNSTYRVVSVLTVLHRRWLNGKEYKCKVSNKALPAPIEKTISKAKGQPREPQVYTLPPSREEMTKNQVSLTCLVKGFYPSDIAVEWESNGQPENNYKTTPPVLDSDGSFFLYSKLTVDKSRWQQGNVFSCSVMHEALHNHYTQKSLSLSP
light: B1 light
Consider B9, for which the celluar uptake in test [1] was 0 relative to SG1 (=1.00). In addition, the “biacore IC binding” value in test [2] was 1.33 relative to SG1 (=1.00).

B10: M103205H795-P1485m/M103202L889-SK1 (antibody, human IgG1, kappa)
heavy: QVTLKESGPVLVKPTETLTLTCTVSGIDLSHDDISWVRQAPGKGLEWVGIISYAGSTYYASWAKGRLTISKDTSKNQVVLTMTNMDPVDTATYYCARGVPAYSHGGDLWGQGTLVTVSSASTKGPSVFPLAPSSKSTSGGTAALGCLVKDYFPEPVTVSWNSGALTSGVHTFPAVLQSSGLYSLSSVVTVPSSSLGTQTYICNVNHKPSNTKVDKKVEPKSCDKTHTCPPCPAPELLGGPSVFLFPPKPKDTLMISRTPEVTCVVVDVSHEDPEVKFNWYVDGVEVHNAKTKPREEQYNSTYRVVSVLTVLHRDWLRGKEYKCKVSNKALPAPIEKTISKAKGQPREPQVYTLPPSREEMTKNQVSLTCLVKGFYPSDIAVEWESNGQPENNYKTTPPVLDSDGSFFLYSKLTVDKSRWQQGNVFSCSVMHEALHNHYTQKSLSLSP
light: B1 light
B10: the celluar uptake in test [1] is 1.88 relative to SG1 (=1.00). The “biacore IC binding” value in test [2] is 1.29 relative to SG1 (=1.00).

B11: M103205H795-P1491m/M103202L889-SK1 (antibody, human IgG1, kappa)
heavy: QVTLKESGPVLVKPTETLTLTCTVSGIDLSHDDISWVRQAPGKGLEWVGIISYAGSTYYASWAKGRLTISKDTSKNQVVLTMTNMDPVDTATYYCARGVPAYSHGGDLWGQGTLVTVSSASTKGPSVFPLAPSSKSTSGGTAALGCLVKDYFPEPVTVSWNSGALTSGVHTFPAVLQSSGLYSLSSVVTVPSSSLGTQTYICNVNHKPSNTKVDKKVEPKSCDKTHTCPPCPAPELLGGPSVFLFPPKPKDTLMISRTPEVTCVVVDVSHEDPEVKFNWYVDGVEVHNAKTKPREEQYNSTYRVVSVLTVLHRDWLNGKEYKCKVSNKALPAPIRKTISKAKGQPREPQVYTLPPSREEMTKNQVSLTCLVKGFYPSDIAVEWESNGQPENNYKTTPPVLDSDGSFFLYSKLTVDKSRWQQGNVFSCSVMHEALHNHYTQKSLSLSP
light: B1 light
Take B11: the celluar uptake in test [1] is 1.37 relative to SG1 (=1.00). Further, the “biacore IC binding” value in test [2] is 1.05 relative to SG1 (=1.00).

B12: M103205H795-P1488m/M103202L889-SK1 (antibody, human IgG1, kappa)
heavy: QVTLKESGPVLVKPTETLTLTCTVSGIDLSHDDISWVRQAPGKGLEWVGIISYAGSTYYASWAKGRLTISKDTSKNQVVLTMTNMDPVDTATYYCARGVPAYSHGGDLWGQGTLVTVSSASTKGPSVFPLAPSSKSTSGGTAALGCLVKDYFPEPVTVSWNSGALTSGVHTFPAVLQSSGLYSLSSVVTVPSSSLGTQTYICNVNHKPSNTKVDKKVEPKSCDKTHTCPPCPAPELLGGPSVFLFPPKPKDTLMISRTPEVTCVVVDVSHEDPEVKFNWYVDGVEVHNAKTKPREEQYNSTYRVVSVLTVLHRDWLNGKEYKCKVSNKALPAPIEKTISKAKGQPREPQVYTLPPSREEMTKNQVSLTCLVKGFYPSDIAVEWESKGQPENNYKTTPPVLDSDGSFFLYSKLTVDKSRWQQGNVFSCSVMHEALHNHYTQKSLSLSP
light: B1 light
Turning to B12, the celluar uptake in test [1] is 1.45 relative to SG1 (=1.00). Besides, the “biacore IC binding” value in test [2] is 1.43 relative to SG1 (=1.00).

B13: M103205H795-P1490m/M103202L889-SK1 (antibody, human IgG1, kappa)
heavy: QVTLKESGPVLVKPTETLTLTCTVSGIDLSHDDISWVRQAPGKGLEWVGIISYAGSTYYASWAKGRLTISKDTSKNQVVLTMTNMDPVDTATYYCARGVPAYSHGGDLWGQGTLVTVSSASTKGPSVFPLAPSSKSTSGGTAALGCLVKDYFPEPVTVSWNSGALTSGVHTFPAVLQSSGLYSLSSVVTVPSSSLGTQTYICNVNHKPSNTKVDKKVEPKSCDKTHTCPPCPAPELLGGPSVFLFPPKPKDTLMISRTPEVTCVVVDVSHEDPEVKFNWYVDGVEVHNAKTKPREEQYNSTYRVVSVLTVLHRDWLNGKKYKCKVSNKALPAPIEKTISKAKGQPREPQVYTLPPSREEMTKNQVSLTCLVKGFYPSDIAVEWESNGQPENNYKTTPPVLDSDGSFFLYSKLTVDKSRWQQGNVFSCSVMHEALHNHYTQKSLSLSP
light: B1 light
In the case of B13, the celluar uptake in test [1] is 1.33 relative to SG1 (=1.00). The “biacore IC binding” value in test [2] is 1.28 relative to SG1 (=1.00).

B14: M103205H795-P1383m/M103202L889-SK1 (antibody, human IgG1, kappa)
heavy: QVTLKESGPVLVKPTETLTLTCTVSGIDLSHDDISWVRQAPGKGLEWVGIISYAGSTYYASWAKGRLTISKDTSKNQVVLTMTNMDPVDTATYYCARGVPAYSHGGDLWGQGTLVTVSSASTKGPSVFPLAPSSKSTSGGTAALGCLVKDYFPEPVTVSWNSGALTSGVHTFPAVLQSSGLYSLSSVVTVPSSSLGTQTYICNVNHKPSNTKVDKKVEPKSCDKTHTCPPCPAPELLGGPSVFLFPPKPKDTLMISRTPEVTCVVVDVSHEDPEVKFNWYVDGVEVHNAKTKPREEQYNSTYRVVSVLTVLHRDWLNGKEYKCKVSNKALPAPIEKTISKAKGQPREPQVYTLPPSREEMTKNQVSLTCLVKGFYPSDIAVEWESNGQPENNYKTTPPVLDRDGSFFLYSKLTVKKSRWQQGNVFSCSVMHEALHNHYTQKSLSLSP
light: B1 light
notes: also called MS1032LO06-P1383m
On to B14, for which the celluar uptake in test [1] was 5.68 relative to SG1 (=1.00). The “biacore IC binding” value in test [2] was 1.41 relative to SG1 (=1.00).
